{"source": "paper PMC7462287", "origin": "cited, not measured here", "target": "Protective antigen heptamer (Bacillus anthracis) (UniProt P13423)", "sequence (P13423 197-764)": "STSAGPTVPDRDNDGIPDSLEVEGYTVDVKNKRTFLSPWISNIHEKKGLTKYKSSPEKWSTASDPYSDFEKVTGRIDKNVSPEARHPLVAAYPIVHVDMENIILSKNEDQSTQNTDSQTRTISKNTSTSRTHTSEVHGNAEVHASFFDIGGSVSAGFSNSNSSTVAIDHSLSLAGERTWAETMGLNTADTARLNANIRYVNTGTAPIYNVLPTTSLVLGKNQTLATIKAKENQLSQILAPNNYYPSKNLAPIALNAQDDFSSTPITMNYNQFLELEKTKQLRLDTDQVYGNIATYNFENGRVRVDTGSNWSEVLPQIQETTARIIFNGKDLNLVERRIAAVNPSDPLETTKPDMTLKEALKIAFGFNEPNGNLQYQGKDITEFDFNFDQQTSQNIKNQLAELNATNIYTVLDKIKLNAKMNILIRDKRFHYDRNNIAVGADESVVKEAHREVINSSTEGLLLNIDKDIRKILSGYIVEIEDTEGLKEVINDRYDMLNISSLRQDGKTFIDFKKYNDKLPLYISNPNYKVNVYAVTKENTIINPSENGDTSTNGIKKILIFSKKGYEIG", "experiment": "SPR", "data": [{"substance": "Edema factor (from UniProt P40136)", "values": [{"measurement": "Kd", "result": 1.5, "unit": "nM"}]}]}
